Laboratory results: patent publication US20250032576A1, “CNP Therapy” (BIOMARIN PHARMACEUTICAL INC., priority 2021, published 2025)
Substitutions are numbered along the chain they refer to. Where “and” joins values, the source holds several entries; their conditions need not be identical. Identical values can stand only once. Like-named read-outs stand apart in the source and are kept apart here. Each block holds one molecule with its values, some of them ahead of it. No end group written: not given here.

How the values were obtained:
plasma NTproCNP = settings: short non Ach children starting daily HGH, day 21; cited from earlier work
[1] = system: lumbar vertebral nppc expression, plasma NTproCNP; settings: cited from earlier work
[2] = target: NPR2 variant Ala48Ser (human) (UniProt P20594); assay: cell-based or functional assay
[3] = target: NPR2 variant Ala59Thr (human) (UniProt P20594); assay: cell-based or functional assay
[4] = target: NPR2 variant Arg263His (human) (UniProt P20594); assay: cell-based or functional assay
[5] = target: NPR2 variant Arg562Gln (human) (UniProt P20594); assay: cell-based or functional assay
[6] = target: NPR2 variant Arg601Ser (human) (UniProt P20594); assay: cell-based or functional assay
[7] = target: NPR2 variant Arg776Trp (human) (UniProt P20594); assay: cell-based or functional assay
[8] = target: NPR2 variant Arg957Cys (human) (UniProt P20594); assay: cell-based or functional assay
[9] = target: NPR2 variant Glu359Ala (human) (UniProt P20594); assay: cell-based or functional assay
[10] = target: NPR2 variant Glu389Asp (human) (UniProt P20594); assay: cell-based or functional assay
[11] = target: NPR2 variant Glu727Gln (human) (UniProt P20594); assay: cell-based or functional assay
[12] = target: NPR2 variant Glu77Lys (human) (UniProt P20594); assay: cell-based or functional assay
[13] = target: NPR2 variant Gly209Val (human) (UniProt P20594); assay: cell-based or functional assay
[14] = target: NPR2 variant Gly21Arg (human) (UniProt P20594); assay: cell-based or functional assay
[15] = target: NPR2 variant Gly917Arg (human) (UniProt P20594); assay: cell-based or functional assay
[16] = target: NPR2 variant HIS508Asp (human) (UniProt P20594); assay: cell-based or functional assay
[17] = target: NPR2 variant His552Arg (human) (UniProt P20594); assay: cell-based or functional assay
[18] = target: NPR2 variant Ile494Ser (human) (UniProt P20594); assay: cell-based or functional assay
[19] = target: NPR2 variant Leu1009Val (human) (UniProt P20594); assay: cell-based or functional assay
[20] = target: NPR2 variant Leu956Gln (human) (UniProt P20594); assay: cell-based or functional assay
[21] = target: NPR2 variant Lys1006Thr (human) (UniProt P20594); assay: cell-based or functional assay
[22] = target: NPR2 variant Lys367Glu (human) (UniProt P20594); assay: cell-based or functional assay
[23] = target: NPR2 variant Lys480Asn (human) (UniProt P20594); assay: cell-based or functional assay
[24] = target: NPR2 variant Lys629Arg (human) (UniProt P20594); assay: cell-based or functional assay
[25] = target: NPR2 variant Pro301Ser (human) (UniProt P20594); assay: cell-based or functional assay
[26] = target: NPR2 variant Ser522Pro (human) (UniProt P20594); assay: cell-based or functional assay
[27] = target: NPR2 variant Thr297Met (human) (UniProt P20594); assay: cell-based or functional assay
[28] = target: NPR2 variant Thr377Asn (human) (UniProt P20594); assay: cell-based or functional assay
[29] = target: NPR2 variant Thr907Met (human) (UniProt P20594); assay: cell-based or functional assay
[30] = target: NPR2 variant Trp42Arg (human) (UniProt P20594); assay: cell-based or functional assay
[31] = target: NPR2 variant Val553Leu (human) (UniProt P20594); assay: cell-based or functional assay
[32] = target: NPR2 variant Val965Asp (human) (UniProt P20594); assay: cell-based or functional assay
NPR2 = assay: cGMP catchpoint assay of NPR2 variants in transfected HEK293 cells treated with 20 nM CNP; format: cell-based; design: key to Lable: loss-of-function (LoF); Gain-of-function (GoF); settings: for average phenotype: cGMP normalized to RedLuciferase and to WT = 1, HEK293, 20 nM CNP, 0.4 nM IBMX, at least 3 repeat experiments with 4 replicates each; for Lable: high-confidence variant class
Procedure: Described herein is an in-vitro assay (cGMP) to assess the activities of >260 NPR2 variants. NPR2 protein-altering variants have been identified in the UK Biobank study and described in Estrada et al. (Nat Commun. 2021 12 (1): 2224). NPR2-expression constructs were transfected into HEK293 cells and 3 days later cells were treated with […] IBMX and 20 nM CNP in serum-free DMEM prior to measuring cGMP levels. The cGMP catchpoint ELISA competition assay (Molecular Devices) was used to measure cGMP according to manufacturer recommendations. RedLuc was used as a transfection control (FIG. 8A).
The NPR2 alpha-fold structure was obtained from a recent alpha-fold publication (Jumper et al., Nature 596:583-589 (2021)). A list of phenotypically characterized “high-confidence” variants was generated (Table 4). Phenotype is calculated by determining levels of cGMP using a standard curve. This value to normalized to RedLuciferase (transfection control). This value is further normalized by setting WT to 1. Average value is calculated from at least 3 repeat experiments with 4 replicates each.

Molecule: Human Growth Hormone [Human Growth Hormone (HGH)]
increase in NTproCNP, delta (plasma NTproCNP): 22%
increase in NTproCNP, mean (plasma NTproCNP): 11 pmol/L

Molecule: CNP 53: active 53-amino acid peptide generated from pro-CNP by furin cleavage (DLRVDTKSRAAWARLLQEHPNARKYKGANKKGLSKGCFGLKLDRIGSMSGLGC; ends and bridges not checked; cysteine pairing not given here; UniProt P23582 74-126, looked up)
lumbar vertebral nppc expression ([1]; 3 days continuous high dose intravenous infusion): significantly reducing
plasma NTproCNP ([1]; females (n=6)): small decline
plasma NTproCNP ([1]; male rats (n=6)): did not reduce

average phenotype (cGMP, normalized to RedLuciferase, WT set to 1) (relative to WT = 1) [2]: 0.0679
average phenotype (cGMP, normalized to RedLuciferase, WT set to 1) (relative to WT = 1) [3]: 3.74
average phenotype (cGMP, normalized to RedLuciferase, WT set to 1) (relative to WT = 1) [4]: 1.86
average phenotype (cGMP, normalized to RedLuciferase, WT set to 1) (relative to WT = 1) [5]: 1.55 and 1.63
average phenotype (cGMP, normalized to RedLuciferase, WT set to 1) (relative to WT = 1) [6]: 0.0595
average phenotype (cGMP, normalized to RedLuciferase, WT set to 1) (relative to WT = 1) [7]: 0.0131
average phenotype (cGMP, normalized to RedLuciferase, WT set to 1) (relative to WT = 1) [8]: 0.0295 and 0.0155
average phenotype (cGMP, normalized to RedLuciferase, WT set to 1) (relative to WT = 1) [9]: 3
average phenotype (cGMP, normalized to RedLuciferase, WT set to 1) (relative to WT = 1) [10]: 0.0708
average phenotype (cGMP, normalized to RedLuciferase, WT set to 1) (relative to WT = 1) [11]: 1.7
average phenotype (cGMP, normalized to RedLuciferase, WT set to 1) (relative to WT = 1) [12]: 0.0499
average phenotype (cGMP, normalized to RedLuciferase, WT set to 1) (relative to WT = 1) [13]: 0.0886
average phenotype (cGMP, normalized to RedLuciferase, WT set to 1) (relative to WT = 1) [14]: 2.78
average phenotype (cGMP, normalized to RedLuciferase, WT set to 1) (relative to WT = 1) [15]: 0.0171
average phenotype (cGMP, normalized to RedLuciferase, WT set to 1) (relative to WT = 1) [16]: 1.74
average phenotype (cGMP, normalized to RedLuciferase, WT set to 1) (relative to WT = 1) [17]: 1.79
average phenotype (cGMP, normalized to RedLuciferase, WT set to 1) (relative to WT = 1) [18]: 0.0364
average phenotype (cGMP, normalized to RedLuciferase, WT set to 1) (relative to WT = 1) [19]: 0.0847
average phenotype (cGMP, normalized to RedLuciferase, WT set to 1) (relative to WT = 1) [20]: 0.0243
average phenotype (cGMP, normalized to RedLuciferase, WT set to 1) (relative to WT = 1) [21]: 0.0551
average phenotype (cGMP, normalized to RedLuciferase, WT set to 1) (relative to WT = 1) [22]: 0.0144
average phenotype (cGMP, normalized to RedLuciferase, WT set to 1) (relative to WT = 1) [23]: 1.69
average phenotype (cGMP, normalized to RedLuciferase, WT set to 1) (relative to WT = 1) [24]: 1.49
average phenotype (cGMP, normalized to RedLuciferase, WT set to 1) (relative to WT = 1) [25]: 0.0848
average phenotype (cGMP, normalized to RedLuciferase, WT set to 1) (relative to WT = 1) [26]: 0.0567
average phenotype (cGMP, normalized to RedLuciferase, WT set to 1) (relative to WT = 1) [27]: 0.0302
average phenotype (cGMP, normalized to RedLuciferase, WT set to 1) (relative to WT = 1) [28]: 0.0106
average phenotype (cGMP, normalized to RedLuciferase, WT set to 1) (relative to WT = 1) [29]: 0.0146
average phenotype (cGMP, normalized to RedLuciferase, WT set to 1) (relative to WT = 1) [30]: 0.0288
average phenotype (cGMP, normalized to RedLuciferase, WT set to 1) (relative to WT = 1) [31]: 1.52
average phenotype (cGMP, normalized to RedLuciferase, WT set to 1) (relative to WT = 1) [32]: 0.0158
Molecule: C-type natriuretic peptide (CNP) (from UniProt P23582 105-126) (ligand)

B1: His552Arg: NPR2 protein-altering variant, expression construct transfected into HEK293 cells (protein)
chain: RNLTLAVVLPEHNLSYAWAWPRVGPAVALAVEALGRALPVDLRFVSSELEGACSEYLAPLSAVDLKLYHDPDLLLGPGCVYPAASVARFASHWRLPLLTAGAVASGFSAKNDHYRTLVRTGPSAPKLGEFVVTLHGHFNWTARAALLYLDARTDDRPHYFTIEGVFEALQGSNLSVQHQVYAREPGGPEQATHFIRANGRIVYICGPLEMLHEILLQAQRENLTNGDYVFFYLDVFGESLRAGPTRATGRPWQDNRTREQAQALREAFQTVLVITYREPPNPEYQEFQNRLLIRAREDFGVELGPSLMNLIAGCFYDGILLYAEVLNETIQEGGTREDGLRIVEKMQGRRYHGVTGLVVMDKNNDRETDFVLWAMGDLDSGDFQPAAHYSGAEKQIWWTGRPIPWVKGAPPSDNPPCAFDLDDPSCDKTPLSTLAIVALGTGITFIMFGVSSFLIFRKLMLEKELASMLWRIRWEELQFGNSERYHKGAGSRLTLSLRGSSYGSLMTAHGKYQIFANTGHFKGNVVAIKRVNKKRIELTRQVLFELKHMRDVQFNHLTRFIGACIDPPNICIVTEYCPRGSLQDILENDSINLDWMFRYSLINDLVKGMAFLHNSIISSHGSLKSSNCVVDSRFVLKITDYGLASFRSTAEPDDSHALYAKKLWTAPELLSGNPLPTTGMQKADVYSFGIILQEIALRSGPFYLEGLDLSPKEIVQKVRNGQRPYFRPSIDRTQLNEELVLLMERCWAQDPAERPDFGQIKGFIRRFNKEGGTSILDNLLLRMEQYANNLEKLVEERTQAYLEEKRKAEALLYQILPHSVAEQLKRGETVQAEAFDSVTIYFSDIVGFTALSAESTPMQVVTLLNDLYTCFDAIIDNFDVYKVETIGDAYMVVSGLPGRNGQRHAPEIARMALALLDAVSSFRIRHRPHDQLRLRIGVHTGPVCAGVVGLKMPRYCLFGDTVNTASRMESNGQALKIHVSSTTKDALDELGCFQLELRGDVEMKGKGKMRTYWLLGERKGPPGLL
average phenotype (NPR2): 1.794
Lable (NPR2): GoF

B2: Thr377Asn: NPR2 protein-altering variant, expression construct transfected into HEK293 cells (protein)
chain: B1 chain with T355N, R530H
average phenotype (NPR2): 0.01062
Lable (NPR2): LoF

B3: Thr907Met: NPR2 protein-altering variant, expression construct transfected into HEK293 cells (protein)
chain: B1 chain with R530H, T885M
average phenotype (NPR2): 0.01456
Lable (NPR2): LoF

B4: Lys367Glu: NPR2 protein-altering variant, expression construct transfected into HEK293 cells (protein)
chain: B1 chain with K345E, R530H
average phenotype (NPR2): 0.01438
Lable (NPR2): LoF

B5: Ala59Thr: NPR2 protein-altering variant, expression construct transfected into HEK293 cells (protein)
chain: B1 chain with A37T, R530H
average phenotype (NPR2): 3.735
Lable (NPR2): GoF

B6: Arg263His: NPR2 protein-altering variant, expression construct transfected into HEK293 cells (protein)
chain: B1 chain with R241H, R530H
average phenotype (NPR2): 1.863
Lable (NPR2): GoF

B7: Arg776Trp: NPR2 protein-altering variant, expression construct transfected into HEK293 cells (protein)
chain: B1 chain with R530H, R754W
average phenotype (NPR2): 0.01312
Lable (NPR2): LoF

B8: Glu359Ala: NPR2 protein-altering variant, expression construct transfected into HEK293 cells (protein)
chain: B1 chain with E337A, R530H
average phenotype (NPR2): 2.998
Lable (NPR2): GoF
